Target: T1, recombinant N-terminal His-tagged full-length SAMHD1 (human, UniProt Q9Y3Z3 1-626)
T1 construct: also called recombinant FL SAMHD1; recombinant SAMHD1
Test: pull-down; in vitro pull-down of purified recombinant proteins with an anti-SAMHD1 antibody, analyzed by immunoblot; performed as described in ref. 16
Details: both partners purified

T1 sequence (Q9Y3Z3 whole entry): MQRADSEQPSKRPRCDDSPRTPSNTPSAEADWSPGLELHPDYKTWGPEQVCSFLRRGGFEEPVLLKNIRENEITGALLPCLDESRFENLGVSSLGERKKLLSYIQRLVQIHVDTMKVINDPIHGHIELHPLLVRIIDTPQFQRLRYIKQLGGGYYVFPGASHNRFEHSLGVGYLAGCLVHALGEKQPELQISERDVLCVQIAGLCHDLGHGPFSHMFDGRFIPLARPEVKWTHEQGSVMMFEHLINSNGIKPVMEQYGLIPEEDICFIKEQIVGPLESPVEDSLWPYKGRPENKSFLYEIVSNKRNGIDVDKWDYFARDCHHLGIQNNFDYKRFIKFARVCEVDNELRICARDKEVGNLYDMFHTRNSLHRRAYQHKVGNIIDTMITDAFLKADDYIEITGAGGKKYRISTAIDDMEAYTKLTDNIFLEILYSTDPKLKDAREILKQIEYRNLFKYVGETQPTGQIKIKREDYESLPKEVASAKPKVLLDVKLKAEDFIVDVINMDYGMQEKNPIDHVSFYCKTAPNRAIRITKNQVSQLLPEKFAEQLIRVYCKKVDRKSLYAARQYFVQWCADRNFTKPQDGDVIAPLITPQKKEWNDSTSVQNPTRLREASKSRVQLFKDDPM

binding result: binds
B1: purified His-tagged MAVS without the TM domain (aa 1-513) (domain or fragment, human, UniProt Q7Z434 1-513, looked up)
chain: MPFAEDKTYKYICRNFSNFCNVDVVEILPYLPCLTARDQDRLRATCTLSGNRDTLWHLFNTLQRRPGWVEYFIAALRGCELVDLADEVASVYQSYQPRTSDRPPDPLEPPSLPAERPGPPTPAAAHSIPYNSCREKEPSYPMPVQETQAPESPGENSEQALQTLSPRAIPRNPDGGPLESSSDLAALSPLTSSGHQEQDTELGSTHTAGATSSLTPSRGPVSPSVSFQPLARSTPRASRLPGPTGSVVSTGTSFSSSSPGLASAGAAEGKQGAESDQAEPIICSSGAEAPANSLPSKVPTTLMPVNTVALKVPANPASVSTVPSKLPTSSKPPGAVPSNALTNPAPSKLPINSTRAGMVPSKVPTSMVLTKVSASTVPTDGSSRNEETPAAPTPAGATGGSSAWLDSSSENRGLGSELSKPGVLASQVDSPFSGCFEDLAISASTSLGMGPCHGPEENEYKSEGTFGIHVAENPSIQLLEGNPGPPADPDGGPRPQADRKFQEREVPCHRPSP
notes: also called MAVS without TM; recombinant MAVS without the TM domain; source: bought: Origene (AR50771PU-N); purified from E. coli

From publication PMC10404699, “SAMHD1 impairs type I interferon induction through the MAVS, IKKε, and IRF7 signaling axis during viral infection” (The Journal of Biological Chemistry, 2023)
